Assay results taken from patent US20260152567A1 (CSPC MEGALITH BIOPHARMACEUTICAL, published 2026).

Molecular target: T1, C-terminal portion of the CD73 protein (Homo sapiens (Human), UniProt P21589 337-549)
T1 construct: also called CD73 C-terminal protein; C-terminus of the CD73 protein
T1 sequence: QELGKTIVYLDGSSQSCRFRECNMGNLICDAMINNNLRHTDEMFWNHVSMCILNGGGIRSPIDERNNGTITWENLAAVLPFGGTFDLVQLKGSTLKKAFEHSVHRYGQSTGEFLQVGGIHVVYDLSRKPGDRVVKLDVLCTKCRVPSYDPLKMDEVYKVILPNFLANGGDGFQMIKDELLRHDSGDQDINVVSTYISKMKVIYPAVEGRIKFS
Assay: ELISA, plate coated with CD73 C-terminal protein at 1 µg/mL
Protocol: In this example, the C-terminal portion (SEQ ID NO. 41) and the N-terminal portion (SEQ ID NO. 42) of the CD73 protein were separately constructed, and the epitopes recognized by the antibodies were detected by ELISA method. Elisa plates were respectively coated with the CD73 N-terminal and C-terminal proteins at a concentration of 1 μg/mL. The test antibodies were diluted in a gradient.

B1: Hab1F2F9.15 (antibody, human IgG1, kappa, L234A L235A, V domains shown)
VH: QVQLVQSGAEVKKPGASVKVSCKASGYTFTSYWMHWVRQAPGQRLEWMGNINPSNGGTKYSQKFQGRVTITVDTSASTAYMELSSLRSEDTAVYYCARRDYGSPSYWGQGTTVTVSS
VL: DIQMTQSPSSLSASVGDRVTITCKASQDINSYLTWFQQKPGKAPKSLIYRTNILLDGVPSRFSGSGSGTDYTLTISSLQPEDFATYYCLQYHEFPVTFGGGTKLEIKR
notes: Humanized 1F2F9; also called Huab1F2F9.15; HuablF2F9.15
binding result: no binding

B2: Hab7C3C2.5 (antibody, human IgG1, kappa, L234A L235A, V domains shown)
VH: QVQLVQSGAEVKKPGASVKVSCKASGYTFTSYDINWVRQATGQGLEWIGWIYPRDGFTKYNEKFKGRVTLTVNTSISTAYMELSSLRSEDTAVYYCARKEGYRGDWYFDVWGQGTTVTVSS
VL: DIQMTQSPSSLSASVGDRVTITCRASGNVHNYLAWYQQKPGKAPKLLLYNAKTLASGVPSRFSGSGSGTDYTLTISSLQPEDFATYYCQHFWSTPWTFGGGTELEIKR
notes: Humanized 7C3C2; also called Hab7C3C.5
binding result: no binding
